Assay results: publication PMC5835332

Molecular target: actin from bovine muscle, monomerized (G-actin), labelled with NT-647 dye (bovine) (UniProt P68138)
Assay: MST

| Substance | Kd [µM] |
| --- | --- |
| F1_(P97-232), recombinant fragment of the P97 cilium adhesin (amino acids 106-758) (domain or fragment) | 0.0342 |
| F3_(P97-232), recombinant fragment of the P97 cilium adhesin (amino acids 768-938) (domain or fragment) | 1.79 |
